In patent US20160304573A1, “FIBROMODULIN PEPTIDE” (The Regents of the University of California, priority 2010, published 2016):

Tests used:
TGF-β3 = target: T1, TGF-β3 (Homo sapiens, UniProt P10600); assay: TGF-β3 binding to biotinylated FMOD/FMOD peptides on avidin resin; non-bound TGF-β read by Mv1Lu growth inhibition (MTT)
T1 sequence (P10600 301-412 limits assumed): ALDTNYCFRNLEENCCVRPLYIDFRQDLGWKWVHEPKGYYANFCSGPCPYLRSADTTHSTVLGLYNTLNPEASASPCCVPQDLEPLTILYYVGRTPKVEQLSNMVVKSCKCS
Experimental: FMOD (whole protein) (SEQ ID NO:1), FMOD peptides and control protein BSA were biotinylated. While, the biotinylated proteins and peptides were bound to commercial available Piece Monomeric Avidin UltraLink Resin (Piece). The amounts of each test peptides/proteins are 1:1, 10:1, 100:1 and 1000:1 to TGF-βs, respectively. After washing out the non-bound residues, appropriate amount TGF-βs (based on the primary test assay) were added to the resin at 4° C. After overnight binding, non-bound TGF-βs were collected, followed by filter sterilization. Then, the TGF-βs residue were diluted 100 times in DEME-0.5% FBS to ensure the concentration was located in the linear region of TGF-βs on Mv1Lu proliferate inhibition.
Diluted TGF-βs was added to overnight serum-starved Mv1Lu, and fresh TGF-βs media were added for another 24 hour before MTT assay. Samples with no TGF-βs added were employed as controls.

[1] = tested on: α-smooth muscle actin (α-SMA) expression; assay: α-SMA expression staining; assay type: cell-based
Experimental: Exemplary tests on effects of FMOD and TGF-β or FMOD peptides and TGF-β on α-SMA expression were performed and shown in FIGS. 25A-25D. Expression levels of α-SMA, which is a marker for the transition of fibroblasts to myofibroblasts, were measured and presented in staining in these figures.

[2] = tested on: connective tissue growth factor (CTGF) expression; assay: CTGF expression and cell aggregation in Rat-2 cells, confocal staining; assay type: cell-based; details: for CTGF expression: 48 h
Experimental: Results of exemplary tests on each of FMOD and FMOD-P, alone or in combination with TGF-β on CTGF expression are shown in FIGS. 28A-28D. In these tests, 4,000 cells/well passage 18 Rat-2 cells were seeded in 8-well chamber slices in DMEM medium with 10% FBS. After 6 h adhesion, fresh DMEM medium with 0.5% FBS was employed for overnight serum starvation and then treatment media added. Treatment media were changed after 24 h. Cells were fixed and staining at 48 h. Photos were captured at 630× magnifications using a confocal microscope. In these figures, the cells were stained for CTGF (connective tissue growth factor, a factor involved in cell proliferation, migration and matrix production) or DAPI (4′,6-diamidino-2-phenylindole a fluorescent stain that binds strongly to DNA-used for nuclear staining). Merged images showing both CTGF and DAPI staining are also shown.

[3] = 100 pM TGF-β1+200 nM Fibromodulin, FIG. 25D

B1: FMOD: recombinant human fibromodulin whole protein (SEQ ID NO:1) produced in CHO-K1 (protein, listed as Homo sapiens)
chain: MQWTSLLLLAGLFSLSQAQYEDDPHWWFHYLRSQQSTYYDPYDPYPYETYEPYPYGVDEGPAYTYGSPSPPDPRDCPQECDCPPNFPTAMYCDNRNLKYLPFVPSRMKYVYFQNNQITSIQEGVFDNATGLLWIALHGNQITSDKVGRKVFSKLRHLERLYLDHNNLTRMPGPLPRSLRELHLDHNQISRVPNNALEGLENLTALYLQHNEIQEVGSSMRGLRSLILLDLSYNHLRKVPDGLPSALEQLYMEHNNVYTVPDSYFRGAPKLLYVRLSHNSLTNNGLASNTFNSSSLLELDLSYNQLQKIPPVNTNLENLYLQGNRINEFSISSFCTVVDVVNFSKLQVLRLDGNEIKRSAMPADAPLCLRLASLIEI
TGF-β3; comparison of FIGS. 13-15
  rank order of binding to TGF-β isoforms: TGF-β1>TGF-β2>TGF-β3
TGF-β3; ratios 1:1, 10:1, 100:1, 1000:1 to TGF-β, FIG. 15
  TGF-β3 binding: TGF-β3 binding that also expectedly increased with higher FMOD protein ratios up to 1:100
[1]; [3]
  cell density/cell aggregation: increased cell density/cell aggregation
  α-SMA staining: significantly increased α-SMA staining
[1]; mono-treatment (200 nM FMOD or 100 pM TGF-β1), FIGS. 25B, 25C
  α-SMA staining: minimal α-SMA staining
[2]; 100 pM TGF-β1+200 nM FMOD
  cell aggregation: significant cell aggregation
[2]; 100 pM TGF-β1+200 nM FMOD, FIG. 21D
  CTGF expression: significantly higher CTGF expression
[2]; 200 nM FMOD alone, compared to the control group
  cell morphology: more flat and spread out when compared to the control group
[2]; TGF-β1/FMOD combo-treatment relative to TGF-β1 mono-treatment, FIG. 24
  CTGF expression (green fluorescence): significantly increases expression of CTGF
[2]; TGF-β1/FMOD combo-treatment, FIG. 24
  cell morphology: much more densely packed, aggregated cells with a significant degree of nodule formation
[2]; mono-treatment (200 nM FMOD or 100 pM TGF-β1), FIGS. 21B, 21C
  CTGF expression: Minimal CTGF expression
